Here are results for three substances from article PMC4102529, “FRET Based Quantification and Screening Technology Platform for the Interactions of Leukocyte Function-Associated Antigen-1 (LFA-1) with InterCellular Adhesion Molecule-1 (ICAM-1)” (PLoS ONE, 2014).

The target of experiment [1] is human recombinant ICAM-1 (D1-D2-Fc), Alexa Fluor 555 conjugate (human) (UniProt P05362). Put plainly: FRET or BRET; steady-state, in solution; emission spectra at 470 nm excitation of mixtures with Alexa Fluor 555-D1-D2-Fc constant at 100 nM and Alexa Fluor 488-LFA-1 at 25-300 nM (A/D 8.40-0.70); incubated 30 minutes at room temperature; FRET efficiency by Eq. (3). A general note: In BRET a luciferase serves as donor, and the signal depends on an acceptor being close.

Experiment [2] addresses recombinant human integrin LFA-1 (αLβ2), Alexa Fluor 488 conjugate (human) (UniProt P20701). Put plainly: FRET or BRET; steady-state, in solution, 96-well plate; Alexa Fluor 488-LFA-1 (donor) fixed at 100 nM, Alexa Fluor 555-D1-D2-Fc (acceptor) varied from 0 to 1.6 µM; PBS pH 7.4, 1 mM EGTA, 2 mM Mg2+; fit assuming one-to-one interaction.
The target of experiment [3] is human recombinant ICAM-1 (D1-D2-Fc), Alexa Fluor 555 conjugate (human) (UniProt P05362). Put plainly: FRET or BRET; steady-state, in solution competition screening, 96-well plate; Alexa Fluor 488-LFA-1 (100 nM) mixed with peptide (0.02, 0.2, 2, 20 µM), then incubated with Alexa Fluor 555-D1-D2-Fc (100 nM) for 30 min in the dark; PBS pH 7.4, 1 mM EGTA, 2 mM Mg2+; inhibition efficiency from the FRET efficiency.

Sequence of human recombinant ICAM-1 (D1-D2-Fc), Alexa Fluor 555 conjugate (human) (P05362 28-532): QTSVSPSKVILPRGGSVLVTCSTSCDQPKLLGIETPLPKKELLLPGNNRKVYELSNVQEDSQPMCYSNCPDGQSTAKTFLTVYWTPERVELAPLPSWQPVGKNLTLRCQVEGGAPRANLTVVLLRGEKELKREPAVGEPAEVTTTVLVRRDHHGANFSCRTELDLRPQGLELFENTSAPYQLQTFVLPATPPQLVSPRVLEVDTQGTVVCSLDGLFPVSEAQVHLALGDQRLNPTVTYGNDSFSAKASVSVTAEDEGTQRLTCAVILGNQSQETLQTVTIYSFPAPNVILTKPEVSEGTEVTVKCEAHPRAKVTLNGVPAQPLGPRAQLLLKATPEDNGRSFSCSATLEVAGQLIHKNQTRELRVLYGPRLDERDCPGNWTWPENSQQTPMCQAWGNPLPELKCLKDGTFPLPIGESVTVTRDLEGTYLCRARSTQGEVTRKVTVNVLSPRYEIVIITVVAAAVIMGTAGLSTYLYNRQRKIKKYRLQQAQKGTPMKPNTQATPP
Sequence of recombinant human integrin LFA-1 (αLβ2), Alexa Fluor 488 conjugate (human) (P20701 26-1090, chain 1 of 2): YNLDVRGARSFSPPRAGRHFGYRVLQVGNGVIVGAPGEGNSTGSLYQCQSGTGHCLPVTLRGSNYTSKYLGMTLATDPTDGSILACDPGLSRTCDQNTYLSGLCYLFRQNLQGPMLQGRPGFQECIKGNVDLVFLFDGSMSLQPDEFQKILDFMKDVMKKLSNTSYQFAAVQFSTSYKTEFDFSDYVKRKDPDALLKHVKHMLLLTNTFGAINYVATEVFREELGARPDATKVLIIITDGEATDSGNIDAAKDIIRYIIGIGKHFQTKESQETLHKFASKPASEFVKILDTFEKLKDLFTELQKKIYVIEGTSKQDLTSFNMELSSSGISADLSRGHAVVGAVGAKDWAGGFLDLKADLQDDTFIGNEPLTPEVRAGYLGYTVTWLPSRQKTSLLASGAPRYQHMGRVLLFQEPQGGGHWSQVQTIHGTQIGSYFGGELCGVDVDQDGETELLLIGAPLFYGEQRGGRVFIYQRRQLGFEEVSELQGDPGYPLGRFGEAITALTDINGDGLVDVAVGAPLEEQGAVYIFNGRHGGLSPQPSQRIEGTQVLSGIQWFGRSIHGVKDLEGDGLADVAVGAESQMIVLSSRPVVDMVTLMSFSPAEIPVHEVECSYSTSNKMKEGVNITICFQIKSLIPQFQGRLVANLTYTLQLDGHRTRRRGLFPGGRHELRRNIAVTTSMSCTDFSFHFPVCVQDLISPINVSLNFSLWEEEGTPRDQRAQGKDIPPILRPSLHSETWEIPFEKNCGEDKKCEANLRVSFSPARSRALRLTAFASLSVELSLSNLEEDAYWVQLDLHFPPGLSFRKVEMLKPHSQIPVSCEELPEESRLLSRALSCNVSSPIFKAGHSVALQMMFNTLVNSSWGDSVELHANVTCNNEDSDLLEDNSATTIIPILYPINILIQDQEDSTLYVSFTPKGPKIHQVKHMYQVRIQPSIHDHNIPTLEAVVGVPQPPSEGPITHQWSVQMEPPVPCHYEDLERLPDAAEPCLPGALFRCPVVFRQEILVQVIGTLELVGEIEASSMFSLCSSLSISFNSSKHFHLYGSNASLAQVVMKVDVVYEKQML
Sequence of recombinant human integrin LFA-1 (αLβ2), Alexa Fluor 488 conjugate (human) (P05107 23-700, chain 2 of 2, further chain): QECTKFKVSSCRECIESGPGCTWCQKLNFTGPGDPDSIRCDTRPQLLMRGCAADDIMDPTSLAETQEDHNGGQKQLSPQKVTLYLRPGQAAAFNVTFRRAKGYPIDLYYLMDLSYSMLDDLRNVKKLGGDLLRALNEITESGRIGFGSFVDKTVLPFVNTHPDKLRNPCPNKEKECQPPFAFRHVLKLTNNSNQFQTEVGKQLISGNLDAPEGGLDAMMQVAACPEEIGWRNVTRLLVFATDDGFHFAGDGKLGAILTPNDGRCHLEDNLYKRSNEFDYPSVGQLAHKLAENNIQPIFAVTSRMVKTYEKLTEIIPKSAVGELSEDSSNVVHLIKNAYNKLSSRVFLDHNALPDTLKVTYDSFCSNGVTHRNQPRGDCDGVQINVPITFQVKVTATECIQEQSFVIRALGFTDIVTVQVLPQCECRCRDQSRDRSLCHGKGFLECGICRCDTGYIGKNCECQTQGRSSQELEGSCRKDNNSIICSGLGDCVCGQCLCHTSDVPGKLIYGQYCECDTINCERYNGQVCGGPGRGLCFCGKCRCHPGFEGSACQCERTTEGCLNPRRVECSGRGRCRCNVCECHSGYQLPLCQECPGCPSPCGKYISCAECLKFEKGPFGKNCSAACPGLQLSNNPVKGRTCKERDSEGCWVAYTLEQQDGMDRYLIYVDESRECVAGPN

On to “recombinant human integrin LFA-1 (αLβ2), Alexa Fluor 488 conjugate (from UniProt P20701 26-1090; P05107 23-700) (complex)”, for which the FRET efficiency (%) at A/D ratio 2.12 (100 nM LFA-1) in experiment [1] came out at 53.5%.

In the case of “human recombinant ICAM-1 (D1-D2-Fc), Alexa Fluor 555 conjugate (from UniProt P05362 28-532) (Fc fusion)”, the Kd (in general, a measure of binding affinity in units of concentration) in experiment [2] stood at 17.9 nM.

For CD11a(441–465) peptide, in experiment [3], the inhibition efficiency of the LFA-1/D1-D2-Fc interaction at 0.02 µM peptide was 20.9%, the inhibition efficiency of the LFA-1/D1-D2-Fc interaction at 0.2 µM peptide stood at 37.1%, the inhibition efficiency of the LFA-1/D1-D2-Fc interaction at 2 µM peptide was found to be 46.9% and the inhibition efficiency of the LFA-1/D1-D2-Fc interaction at 20 µM peptide was 62%.
